Measured values reported in the nanobody polyreactivity screen of Harvey et al. (2022).

Experiment: yeast display, Sf9 membrane polyspecificity reagent, FACS + sequencing; frameworks hold sequencing errors
Summary of the method: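 Sorting gates, low and high (top ~1%), were placed on anti-HA fluorescence to track expression and on streptavidin fluorescence to track reagent binding. A clone's polyreactivity label is taken from the gate it came out of. The reagent was 10% biotinylated, detergent-solubilized Sf9 membrane, applied for 1 hour at 4 °C to galactose-induced yeast display cells.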

Sequence	polyreactivity (PSR sort gate)
QVQLVESGGGLVQAGGSLRLSCAASGLIFPRYTMGWYRQAPGKERELVAAIRGTGGSTYYADSVKGRFTISRDNAKNTVYLQMNSLKPEDTAVYYCATRGKSHGQQFNYWGQGTQVTVSS	high polyreactivity
QVQLVESGGGLVQAGGSLRLSCAASGLIFPSYVMGWYRLAPGKERELVAGITIGDRTYYADSVKGRFTISRDNAKNTVYLQMNSLKPEDTAVYYCAAVYTYAGRRFGYWGQGTQVTVSS	high polyreactivity
QVQLVESGGGLVQAGGSLRLSCAASGLIFPWNAMGWYRQAPGKERELVAAINGRDGSTYYADSVKGRFTISRDNAKNTVYLQMNSLKPEDTAVYYCAKGPSGVRTYREYDSWGQGTQVTVSS	low polyreactivity
QVQLVESGGGLVQAGGSLRLSCAASGLIFQFNAKGWYTQAPGKDREFVAAISGRADSTYYADSVKGRFTISRDNAKNTVYLQMNSLKPEDTAVYYCAALAYYHRYEYWGQGTQVTVSS	low polyreactivity
QVQLVESGGGLVQAGGSLRLSCAASGLIFQHNAMGWYRQAPGKERELVAAISRSAGSTYYADSVKGRFTISRDNAKNTVYLQMNSLKPEDTAVYYCAKRPTPTSKYDTVRYGYWGQGTQVTVSS	low polyreactivity
QVQLVESGGGLVQAGGSLRLSCAASGLIFQLYAMGWSRQAPGKERELLAAITIRDGSTYYADSVKGRFTISRDNAKNTVYFQMNSLKPEDTAFYFCAAEPVYYYPWSQYDYWGQGTQVTVSS	high polyreactivity
QVQLVESGGGLVQAGGSLRLSCAASGLIFQSYAMGWYRQAPGKERELVAVITWSGTSTYADSVKGRFTISRDNAKNTVYLQMNSLKPEDTAVYYCAASKYGSFTNFGYWGQGTQVTVSS	low polyreactivity
QVQLVESGGGLVQAGGSLRLSCAASGLIFQTYAMGWYRQAPGKERELVATISGSTGGTYYADSVKGRFTISRDNAKNTVYLQMNSLKPEDTAVYYCNASVFQSEYDYWGQGTQVTVSS	low polyreactivity
QVQLVESGGGLVQAGGSLRLSCAASGLIFQVYTMGWYRQAPGKERELVAAISWDAGSTYYADSVKGRFTISRDNAKNTVYLLMNSLKPEDTAVYYCATTQYTTYGRRYYWGQGTQVTVSS	high polyreactivity
QVQLVESGGGLVQAGGSLRLSCAASGLIFQYYVMGWYRQAPGKERQLVAAISARGGGTYYADSVKGRFTISRDNAKNTVYLQMNSLKPEDTAVYYCAADPVYAGPGYDYWGQGTQVTVSS	high polyreactivity
QVQLVESGGGLVQAGGSLRLSCAASGLIFRANSMGWYRQPPGKVRELVAAISSGGSTYYADSVKGRFTISRDNAKNTVYLQMNSLIPEDTAFYYCAALGQSPSRFGYWGQGTQVTVSS	low polyreactivity
QVQLVESGGGLVQAGGSLRLSCAASGLIFRGYAMGWYRQAPGKERELVAAISRSGGRTYYADSVKGRYTISRDNAKNTVYLQMNSLKPVDTAVYYCAAQWLYLEYDYWGQGTQVTVSS	high polyreactivity
QVQLVESGGGLVQAGGSLRLSCAASGLIFRHYAMGWYRQAPGKERELVDAITRSGGSTNYADSVKGRFTISRDNAKNTVYLQMNSLKPEDTAVYYCNAGIRYFVVGRSSYDYWGQGTQVTVSS	low polyreactivity
QVQLVESGGGLVQAGGSLRLSCAASGLIFRHYTMGWYRQAPGKERELVAAISRSGGSTRYADSVKGRFTISRDNAKNTVYLQMNSLKPEDTAVYYCAASSVKSTWTLDYWGQGTQVTVSS	high polyreactivity
QVQLVESGGGLVQAGGSLRLSCAASGLIFRKNAMGWDRQAPGKERELVAAMSYNGASTYYADSVKGRFTISRDNAKNTVYLQMNSLKPEDTAVYYCAAYAGYSDQARYYYWGQGTQVTVSS	high polyreactivity
QVQLVESGGGLVQAGGSLRLSCAASGLIFRPYAMGWYRQAPGKERELVAAISSSGGSTYYADSVKGRFTISRDNAKNTVYLQMNSLKPEDTAVYYCATYFARGYNSWGQGTQVTVSS	high polyreactivity
